In patent US20060122119A1 (INSTITUT NAT L DE LA SANTE ET DE LA RECHERCHE MED, published 2006):

B1: modified Melan-A peptide 26-34 EAAGIGILY (peptide)
peptide: EAAGIGILY
notes: synthetic modified peptide
B2: modified Melan-A peptide 26-34 EPAGIGILY (peptide)
peptide: EPAGIGILY
notes: synthetic modified peptide
B3: NY-ESO-1 peptide 94-103 MPFATPMEAE (peptide)
peptide: MPFATPMEAE
notes: synthetic peptide; also called decamer 94-103
B4: NY-ESO-1 peptide 94-104 MPFATPMEAEL (peptide)
peptide: MPFATPMEAEL
notes: synthetic peptide; also called 11-mer 94-104
B5: tyrosinase peptide 309-322 TPRLPSSADVEFCL (peptide)
peptide: TPRLPSSADVEFCL
notes: synthetic peptide; also called 14-mer 309-322
B6: MAGE-A6 peptide 168-176 EVDPIGHVY (peptide)
peptide: EVDPIGHVY
notes: synthetic peptide
B7: NY-ESO-1 peptide 92-103 LAMPFATPMEAE (peptide)
peptide: LAMPFATPMEAE
notes: synthetic peptide; also called 12-mer 92-103
B8: tyrosinase peptide 309-321 TPRLPSSADVEFC (peptide)
peptide: TPRLPSSADVEFC
notes: synthetic peptide; also called 13-mer 309-321
B9: NY-ESO-1 peptide 94-102 MPFATPMEA (peptide)
peptide: MPFATPMEA
notes: synthetic peptide; also called nonamer 94-102
B10: tyrosinase peptide 312-320 LPSSADVEF (peptide)
peptide: LPSSADVEF
notes: synthetic peptide
B11: tyrosinase peptide 309-320 TPRLPSSADVEF (peptide)
peptide: TPRLPSSADVEF
notes: synthetic peptide; also called 12-mer 309-320
B12: NY-ESO-1 peptide 92-104 LAMPFATPMEAEL (peptide)
peptide: LAMPFATPMEAEL
notes: synthetic peptide; also called 13-mer 92-104
B13: gp100 peptide 471-479 VPLDCVLYR (peptide)
peptide: VPLDCVLYR
notes: synthetic peptide
B14: gp100 peptide 471-480 VPLDCVLYRY (peptide)
peptide: VPLDCVLYRY
notes: synthetic peptide
B15: gp100 peptide 470-479 QVPLDCVLYR (peptide)
peptide: QVPLDCVLYR
notes: synthetic peptide, 70% purity

What follows are binders tested against HLA-B*3501 (human).

Row | Stability (half-life of the peptide on HLA-B*35) [h] | Binder
1 | > 6 | B1
2 | > 6 | B2
3 | > 6 | B3
4 | > 6 | B4
5 | > 6 | B5
6 | 6 | B6
7 | > 6 | B7
8 | < 0.5 | B8
9 | > 6 | B9
10 | 6 | B10
11 | > 6 | B11
12 | > 6 | B12
13 | < 0.5 | B13
14 | > 6 | B14

Biological target: HLA-B*3501 (human)
Remark: another data set of the same source

Row | binding result | Binder
15 | no binding | B15

Biological target: HLA-B*3501 (human)
Remark: another data set of the same source

Row | RA (relative affinity) | Binder
16 | 1.32 | B1
17 | 0.4 | B2
18 | 1.32 | B4
19 | > 20 | B5
20 | 1.1 | B6
21 | 16.7 | B8
22 | 0.4 | B9
23 | 1.25 | B10
24 | 1.3 | B11
25 | 0.58 | B12
26 | 20 | B13
27 | 2.6 | B14
